Target: T1, UBE2D2^(S22R C85K)–Ub (UniProt P62837 2-147; P0CG48 1-76, S22R | C85K)
T1 construct: UBE2D2 with S22R and C85K, conjugated to ubiquitin; ubiquitin (Ub), conjugated to UBE2D2; also called UBE2D2–Ub; UBE2D2–Ub conjugate; source: purified as described previously (Buetow et al, 2015)
Assay: SPR; Biacore T200, 25°C; GST-MDM2 variants captured on anti-GST nanobodies on CM-5 chips (about 500 RU), GST as control; UBE2D2–Ub as analyte, seven twofold dilutions from 100 μM; 25 mM Tris-HCl pH 7.6, 300 mM NaCl, 0.5 mM TCEP, 0.005% Tween-20; steady-state affinity
Settings: both partners purified

Kd: 14.5 ± 1.4 µM
B1: GST-tagged MDM2^419-C containing the RING domain (domain or fragment, UniProt Q00987 419-491, looked up)
chain: TQDKEESVESSLPLNAIEPCVICQGRPKNGCIVHGKTGHLMACFTCAKKLKKRNKPCPVCRQPIQMIVLTYFP
notes: MDM2, residues 419 to the C-terminus (RING domain); TEV site between GST and MDM2 (modified pGEX-4T-1); the oligomeric state of the GST fusion was not measured here; also called GST-MDM2^RING; MDM2^RING; source: E. coli BL21-DE3; co-expressed with His-GFP-MDM2^220-334, in lysate (pull-down); not shown: GST, N-terminal, kept

Source: PMC9366199, “Bivalent binding of p14ARF to MDM2 RING and acidic domains inhibits E3 ligase function” (Life Science Alliance, 2022)
